# From patent US20110002929A1 (Ablynx, published 2011)
# Where a chain is given by its changes, count along the chain named. Where two headings read alike, the source gives them in different places.
# T1: mouse RANK-L (mouse, UniProt O35235 158-316, limits assumed)
# T1 construct: also called murine RANK-L
# T1 sequence (looked up): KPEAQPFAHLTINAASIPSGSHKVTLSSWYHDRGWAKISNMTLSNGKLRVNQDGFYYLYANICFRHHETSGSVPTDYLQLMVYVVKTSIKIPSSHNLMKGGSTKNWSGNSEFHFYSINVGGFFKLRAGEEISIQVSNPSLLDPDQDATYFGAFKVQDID
# T2: human RANK-L (human, UniProt O14788 140-317, limits assumed)
# T2 construct: Soluble protein, used coated, biotinylated or labelled in ELISA, AlphaScreen, FMAT and Biacore; also called hRANK-L; soluble human RANK-L
# T2 sequence (looked up): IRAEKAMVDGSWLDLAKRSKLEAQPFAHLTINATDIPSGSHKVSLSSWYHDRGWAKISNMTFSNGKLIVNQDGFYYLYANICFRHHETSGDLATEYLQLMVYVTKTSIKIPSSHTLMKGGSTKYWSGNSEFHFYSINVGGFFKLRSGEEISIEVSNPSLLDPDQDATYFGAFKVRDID
# T3: human RANK-L, full length, membrane-bound, expressed on HEK293T cells (human, UniProt O14788 1-317)
# T3 construct: whole, on cells; also called hRANK-L
# T3 sequence (looked up): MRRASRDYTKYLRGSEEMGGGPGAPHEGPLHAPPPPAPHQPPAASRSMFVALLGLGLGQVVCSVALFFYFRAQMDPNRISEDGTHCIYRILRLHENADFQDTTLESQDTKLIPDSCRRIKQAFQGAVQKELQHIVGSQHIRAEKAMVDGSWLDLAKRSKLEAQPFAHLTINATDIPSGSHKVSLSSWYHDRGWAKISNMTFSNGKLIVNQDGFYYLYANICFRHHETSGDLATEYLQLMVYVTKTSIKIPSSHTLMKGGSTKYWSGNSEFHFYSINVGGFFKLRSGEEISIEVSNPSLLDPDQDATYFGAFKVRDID
# T4: cynomolgus RANK-L, full length, membrane-bound, expressed on HEK293T cells (cynomolgus monkey, UniProt A0A7N9DBU4 1-317)
# T4 construct: whole, on cells; also called cyno RANK-L
# T4 sequence: T3 sequence (looked up) with A32T, F68L, G83S, D174N, S177T, I291V
# B1: RANKL13 (VHH, not shown: small tags and cut ends)
# VHH: EVQLVESGGGLVQAGGSLRLSCAASGRTFRSYPMGWFRQAPGKEREFVASITGSGGSTYYADSVKGRFTISRDNAKNTVYLQMNSLRPEDTAVYSCAAYIRPDTYLSRDYRKYDYWGQGTQVTVSS
# B2: RANKL18 (VHH, not shown: small tags and cut ends)
# VHH: EVQLVESGGGLVQAGGSLRLSCAASGRTFSRSAMGWFRQAPGKEREFVGFITGSGGTTYYGESVKGRFTISRDNAQNPVYLQMNSLKPEDTAVYYCGVYRRTYISSTYSESSEYDYWGQGTQVTVSS
# What was measured:
# [1] = target: T1, mouse RANK-L; assay: ELISA, set-up as for human RANK-L
# How it was run: (§1)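 Nanobodies at 500 nM to 160 pM in 1% casein/PBS incubated 1 h at room temperature; binding detected via anti-myc then anti-mouse-HRP with TMB, OD 450 nm.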
# [2] = target: T2, human RANK-L; assay: ELISA (ED50), biotin-hRANK-L on neutravidin
# How it was run: as §1
# [3] = target: T2, human RANK-L; assay: AlphaScreen, biotin-hRANK-L / RANK-huFc beads
# Protocol: To this mixture, the RANK acceptor beads and the streptavidin donor beads were added and further incubated for 1 hour at room temperature. Fluorescence was measured by reading plates on the EnVision Multilabel Plate Reader (Perkin Elmer) using an excitation wavelength of 680 nm and an emission wavelength of 520 nm.
# [4] = target: T2, human RANK-L; assay: AlphaScreen, biotin-hRANK-L / RANK-huFc beads; remark: listed apart in the source
# [5] = target: T2, human RANK-L; assay: AlphaScreen, biotin-hRANK-L / RANK-huFc beads; remark: listed apart in the source
# [6] = target: T2, human RANK-L; assay: AlphaScreen, biotin-hRANK-L / RANK-huFc beads; remark: listed apart in the source
# [7] = target: T3, human RANK-L, full length, …; assay: FACS, HEK293T with human RANK-L, 400 pM Nanobody
# Protocol: (§2) Human embryonic kidney cells (HEK293T) were grown in Dulbecco's modified Eagles's medium supplemented with 10% fetal bovine serum (FBS), […] L-glutamine, 0.4 mM sodium pyruvate. […] After 48 hours, transfected cells were subjected to FACS analysis. […] Then cells were washed three times with FACS buffer. Bound Nanobodies were detected by subsequent incubations of a primary mouse anti Myc antibody (30 min at 4° C. (2 μg/ml)) and a second incubation with goat anti mouse-Phycoerythrin (PE) (Jackson Laboratories) for another 30 min at 4° C. Finally, after washing, the cells were resuspended in PBS+10% FBS+TO-PRO®-3 (5 nM) (Molecular Probes®, Invitrogen, Merelbeke, Belgium) and cell surface fluorescence expressed as mean PE fluorescence, was measured using flow cytometry.
# [8] = target: T3, human RANK-L, full length, …; assay: FACS, HEK293T with human RANK-L, 2000 pM Nanobody
# Protocol: as §2
# [9] = target: T2, human RANK-L; assay: SPR Biacore 3000, hRANK-L on CM5, 100 nM Nanobody
# Protocol: (§3) Binding kinetics of the humanized versions of Nanobodu RANL13 were also analysed by Surface Plasmon Resonance (Biacore 3000). […] Nanobody binding was assessed at one concentration (100 nM). Each Nanobody was injected for 4 minutes at a flow rate of 45 μl/min to allow binding to chip-bound antigen. Next, binding buffer without Nanobody was sent over the chip at the same flow rate to allow spontaneous dissociation of bound Nanobody.
# [10] = target: T4, cynomolgus RANK-L, full length, …; assay: FACS, HEK293T with cynomolgus RANK-L, 400 pM Nanobody
# Protocol: as §2
# [11] = target: T2, human RANK-L; assay: SPR Biacore 3000, hRANK-L on CM5, 100 nM Nanobody; only indicative (one concentration)
# Protocol: as §3
binder,measurement,setting,value
B1,binding result,[1],no binding (tested: 500 nM to 160 pM)
same,EC50,[2],226 pM
same,IC50,[3],185 pM
same,IC50,[4],147 pM
same,IC50,[5],174 pM
same,IC50,[6],120 pM
same,PE mean fluorescence,[7],5220
same,PE mean fluorescence,[8],13900
same,koff,[9],0.00025 s⁻¹
same,PE mean fluorescence,[10],4110
same,Kd,[11],500 pM
same,kon,[11],500000 M⁻¹ s⁻¹
B2,binding result,[1],no binding (tested: 500 nM to 160 pM)
same,EC50,[2],242 pM
same,IC50,[3],146 pM
same,IC50,[4],187 pM
same,IC50,[5],292 pM
same,IC50,[6],253 pM
same,PE mean fluorescence,[7],2330
same,PE mean fluorescence,[8],7630
same,koff,[9],5.6e-05 s⁻¹
same,PE mean fluorescence,[10],3490
same,Kd,[11],180 pM
same,kon,[11],310000 M⁻¹ s⁻¹
